The DeepSol protein solubility set

test: soluble on expression in E. coli; label from the status in PepcDB or PDB records

Soluble on expression in E. coli, not soluble:
MNKLSRTDEENRQTEFSSSPLSDSVHSCLGFNRKKERKRRTSGDIEQTDKRKRTEERPSDKITFASNVFDNLARVTAERDNPEKLSKYKNIPGVGTRENIDEGISDINQPSSKSSGVKSKYVEVMSLFQKSIQKFSIMNLDYMYTFDWNHYSKKNIQYVVFTKVCQSHAPGHFVEMLKEDCSCRDCGSADLAVKVRLTVPLDLSDIPIPCSEDIQIHVSFLADDLLERHISSNVNRSSNRDDLDFSRRTCEKMYDLYQKMMRGQSSRMYTEWFDKCKIFVKNFLFSKSLHLYHGNVIRRKIEESQTLNKRRCFIFAQIFDLE
MFNNILVVCVGNICRSPTAERLLQRYHPELKVESAGLGALVGKGADPTAISVAAEHQLSLEGHCARQISRRLCRNYDLILTMEKRHIERLCEMAPEMRGKVMLFGHWDNECEIPDPYRKSRETFAAVYTLLERSARQWAQALNAEQV
MAIGSKIIKPGGSDPDDFEKSIAQALVELEANSDLKPYLRDLHITRAREIEFGSKKAVIIYVPIPQQKVFQKIQIILVRELEKKFSGKHVVVIAERKILPKPTRKARNPLKQKRPRSRTLTAVYDAILEDLVFPAEIVGKRIRVKLDGSQLVKVHLDKNQQTTIEHKVDTFTSVYKKLTGRDVTFEFPDNYLNV
MGSDKIHHHHHHMQSIVQTNFTGIDGLIIRNEPRPALTDNGVLIAMETLPVVPSDWHKETDPNATAEQALQLPRVIGIGGVGTVIEVGHNRDQKLLHQRVLVMHPKGSYQEFILNTNSDWLFPLPINVSNAEAATLTAGPGVALALTEFIKQNPSDHLVITGANSVIGLILCQLLGSTYPGLTPIVSPDSQAYFNQSLPGYPVYSIEHLQLFHGRTLIIDIAGSEPLLQQLIAAVPRASIASIALQTSNLNVPFTFVHEDFNHQIYCHLIKTVASHKLWLPIGRIFSFAETKKAQHYAKDHHSRGRVLVNLN
SQKQKALLQRVETDITSVVDNFTQIVNVSRVSDPPVKNSQETYMMEMRASRMATQVLLKDFLMSLWSVVNLLPHQWWQVQAADSLLKLVSELKQTAIFSGFASLNDHVEQRIEEFDQEAEKTNRLLARIADDASANLKELESHYYSSAQRLTLDI
MSLKPGTLISMMTEEEANSITHLTLTGKLNAEDFRHLRDEFPSLKVLDISNAEIKMYSGKAGTYPNGKFYIYMANFVPAYAFSNVVNGVTKGKQTLEKVILSEKIKNIEDAAFKGCDNLKICQIRKKTAPNLLPEALADSVTAIFIPLGSSDAYRFKNRWEHFAFIEGEPLETTIQVGAMGKLEDEIMKAGLQPRDINFLTIEGKLDNADFKLIRDYMPNLVSLDISKTNATTIPDFTFAQKKYLLKIKLPHNLKTIGQRVFSNCGRLAGTLELPASVTAIEFGAFMGCDNLRYVLATGDKITTLGDELFGNGVPSKLIYKEGHHHHHH
MGSDKIHHHHHHVTALPYLIEPLVLPAAVDSPDAGAFREFGELSDALVLETWGNADRSSPQEARLQYWRDNPYTQLRLFFVWLDGRMVARSWIRFGIQENVHTAVLHVNVLAEFSGRGIGRALLRHAEELAAARGCTTLQTFTEHPADFDAGGAGVLKPETGTGGVPAAARGVRFALAAGYRLEQVERFSALELPLAGDTLAALETEALEKSGEQYELLHWTDRCPDGLAQQLAVLMSRMSTDTPVGALNYDEESWDVARVRHVEDTWQKAGLASLVAGARHRATGELAAYSVLQVSDAKPWLANQDDTLVASHHRGHRLGMLVKILNIRRLLAGYPGVERIITFNAAENDHMLAINVALGFHPEGYDGEWQKAL
MGSDKIHHHHHHMSKLKDYNIDKVIIFNNLSTKTKNQLKEKVKLKRLQKKEILFYEKDSLDSVYILLEGKVSIFKISENGERKVIFILNSGEVINDITLDASKNSTVGCEAFENSIVAYYSIEEFLEIMQNDFQLTKDIISYMERRIRRLYRQLKNSISIKVDKKLAAKLYRLSREFGVCCGEWTLLNVNITVTYLADMLGCKRETVSRMIKVLQKEELIKIDNKGFYVKETELSRYFKNN
MGSDKIHHHHHHMIGEKIISFESIDSTNRFLKENYRFYPDGTVVVALEQTSGYGRSGRHWHSPKGGLWFSVLFKPRKPLELSFYTRVFSVAVVKTLENMKIHANIKWPNDVYINGRKLAGVLSEGIFEGAKPLAVVVGVGMNVNNEIPAELKTRAISLKEIMGKEISIVKLMESMLKNARVIFRKYSRKKEALTRIWKRYLLQKEGDLISLEGKKGKIVKINPDSLLIDFDGEIKKVYSLSPH
MDVVKEIMAAIKQYETIIIHRHQRPDPDAIGSQVGLAELLRASFPEKNIYQVGGPVEGLEFLAEMDVITDDVYRGALVIVTDTANAPRISDARFSLGDQLIKIDHHPNDEPYGDLVWVNTNASSCSEIIVDFWQQHLAELTMTDNAARLLYAGIVGDTGRFLYPSTSAHTLAVAAQLRTFNFNAADLNRELDQMPLKVAKLAGYIYQNLEIDANGAARVVLPQSILNSYDIVDSETAAIVSMPGKIEDVLSWAIFVEQPEGYYRVRLRSKGPIINTIAKKHHGGGHPLASGANARDAAEIEVIYQEIQAACQEWAQK
MGSDKIHHHHHHNSDVPENTHLVSKEVQAAFNAKYPQAKDVEWELKGDYAVADFYWDGGEHSAWFNPLSAAWYMTETDVRYENLPEPVLAAHKAGKYADWRVDDVDKLTREGMETLYVIEVEKGESELDLFYSSTGILVKTVVDTGHEEDYDDYLPQPDANGIIAIVKQKYPNATIVEIEREKGLQEVTILDENKEKEVYFNERNEWMGTSWDVQVANLPEAVKKSVMEKYSDYVIDDADYVVTPDNEWYILDLENKQIDKELKVKVDKDGVWL
MGSDKIHHHHHHMTTVLEKFEKLKTEHAPGQEVRQKTPAFEELLIGEKLEGRTVDFSHGDVDAFLPTPGAFEEFSDGVHSGGKQAYTVYRGLADLREILSVRLTSFTGAPVNAADNLIITPGTQGALFLSVAATVAAGDKVAIVQPDYFANRKLVEFFEAEMLPVQLDYLGTDKAAGLDLNQLEAAFRDGARVFVFSNPNNPTGAVYSTEEIDAIAALADRYGAMVIVDQLYSRLLYEGTEYQHLRAVGGTGRDNVITIMGPSKTESLSGYRLGVAFGPSSVIERMERLQAIVSLRAAGYNQAVLQTWFSEPDGWMSERIKLHQAIRDDLLTRFRARADVAVRTPQAGSYMFAKLPRLRVSPIDFVKILRHQATVIVTPGSEFSPHTASSIRLNFSQNHAAATGAVERLVTLIERYREARP
MQPGGDMSALLAQAQQMQQKLLEAQQQLANSEVHGQAGGGLVKVVVKGSGEVIGVTIDPKVVDPDDIETLQDLIVGAMRDASQQVTKMAQERLGALAGAMRPPAPPAAPPGAPGMPGMPGMPGAPGAPPVPGI
GPGSMWFNHRIRQRGLTPVLVNTLQKRLTCSLTRICLCDCKDASGREGVSSSTSGSVPSRMTSQNPPPRPPPTTPAATPGGVQYNTRRESEAVAIEQRRQQQQRATDAQRRGEEPLPEQSESEMARWWPEENQNWSGRMFASPLDKNKKKFDGMFVPEMKEVHGPDKPLELSYAGDNFFLNPDFHMADEVFDETRRFVPPPSFDPAVDEIDDEGFVDGQVMFDIQKAVDEDRRRLEAFGNPLLVEDQVDYLLQPQREGQENIQQRQEFNGFVHWGLLHGAHMIIEENQDYKKAHEFVNRYMRDIDLFQKWLEHPKVRAHIQKKFGVDMHAKFDKLMALVMAMYARSKIQVYEDDPAGALKSLTACMSFINEGADLKKERHRKAIGAVLAARGMVYCKLKSYDRAEDDLTRALRFVNQKRCATLFQLRAEAREALGRIEEARLDEERAAEIWENAEVIAPGMSGKPYKFVL
MDVRQSIHSEHAKTLDTQALRREFLIENIFVADEYTMVYSHIDRIIVGGIMPVSHPVEIGGEVGKQLGVSRLLDRRELGVINIGGAGAIIVDGQRHDIGHRDALYIGKGAKELVFVSNEASRPAKFYYNCAPAHTAYPTKKVSPADVAPVTLGDNLTSNRRTINKYFVPDVLETCQLSMGLTELAPGNLWNTMPCHTHERRMEVYLYFNMEEDSCVFHMMGQPQETRHIVMRNEQAVISPSWSIHSGVGTKAYTFVWGMVGENQVFDDMDHVAVQDLR
MGSDKIHHHHHHMRDHVEIGIGREARRTYSLDDISVVSSRRTRSSKDVDTTWHIDAYKFDLPFMNHPSDALASPEFVIEMGKQGGLGVINAEGLWGRHADLDEAIAKVIAAYEEGDQAAATRTLQELHAAPLDTELLSERIAQVRDSGEIVAVRVSPQNVREIAPIVIKAGADLLVIQGTLISAEHVNTGGEALNLKEFIGSLDVPVIAGGVNDYTTALHMMRTGAVGIIVGGGENTNSLALGMEVSMATAIADVAAARRDYLDETGGRYVHIIADGSIENSGDVVKAIACGADAVVLGSPLARAEEAAGKGYFWPAVAAHPRFPRGVVTESVDLDEAAPSLEQILHGPSTMPWGVENFEGGLKRALAKCGYTDLKSFQKVSLHVN

Soluble on expression in E. coli, soluble:
SLLQLNSPHVHNLFNTPFSAAIMDDVVIGLEVHVQLNRLRTKLFCSCPLNYHQSPPNTHVCPVCLGMPGAMPVINKEAVKAAVKVAMALNAEIQPFTVFDRKNYFYPDLPKGFQISQYDRPLALGGYVTIELDGQEKRIQLKRVHMEEDPGKLSYKGSITTAKYSLIDYNRSGAPLLEIVTEPVMNSPKEARLFLNKLRMILEYLEVFDGDLEGAMRVDANISIRGSGRVEIKNISSFKGVEKALSYEIMRQKNLLQRGRSVVRETRHFDEARNITVSLRSKEEEQDYRYFPEPDLVPVLTEEIVREVEGTLPEMPEEKRERLKRQYGIGDNFAKVLILDVKMADYFEEVAKLVDPKLAASWIVDVLRGELNYRDWSFAKCWEVFKPEEFAKLLKYFEEDRITEKGVVEVIRTKLDEGGEIDAIIQKKGLFAIPKEEIIKFCKEAIEENPKAVEDYLSGKRQALNFLVGQVMKKTRGRADPADTAKLIEEMLS
SLALSSPILKEILIEAPSYAPNSFTFDSTNKGFYTSVQDGRVMKYEGPNSGFVDFAYASPYWNKAFCENSTDAEKRPLCGRTYDISYNLQNNQMYIVDCYYHLSVVGSEGGHATQLATSVDGVPFKWLYAVTVDQRTGIVYFTDVSTLYDDRGVQQIMDTSDKTGRLMKYDPSTKETTLLMKELHVPGGAEVSADSSFVLVAEFLSHQIVKYWLEGPKKGTAEVLVKIPNPGNIKRNADGHFWVSSSEELDGNMHGRVDPKGIKFDEFGNILEVIPLPPPFAGEHFEQIQEHDGLLYIGTLFHGSVGILVYDKKGNSFVSSH
MRYLELAQLYQKLEKTTMKLIKTRLVADFLKKVPDDHLEFIPYLILGEVFPEWDERELGVGEKLLIKAVAMATGIDAKEIEESVKDTGDLGESIALAVKKKKQKSFFSQPLTIKRVYQTLVKVAETTGEGSQDKKVKYLADLFMDAEPLEAKYLARTILGTMRTGVAEGLLRDAIAMAFHVKVELVERAYMLTSDFGYVAKIAKLEGNEGLAKVQVQLGKPIKPMLAQQAASIRDALLEMGGEAEFEIKYDGARVQVHKDGSKIIVYSRRLENVTRAIPEIVEALKEAIIPEKAIVEGELVAIGENGRPLPFQYVLRRFRRKHNIEEMMEKIPLELNLFDVLYVDGQSLIDTKFIDRRRTLEEIIKQNEKIKVAENLITKKVEEAEAFYKRALEMGHEGLMAKRLDAVYEPGNRGKKWLKIKPTMENLDLVIIGAEWGEGRRAHLFGSFILGAYDPETGEFLEVGKVGSGFTDDDLVEFTKMLKPLIIKEEGKRVWLQPKVVIEVTYQEIQKSPKYRSGFALRFPRFVALRDDKGPEDADTIERIAQLYELQEKMKGKVES
MKDQGRSPRKRTGGRRRPNHKKKKHELGKDTVETQVGEQRLKTVDSRGNTQKVRAVKTDVASIADGAETIEATIENVVENPSNPNYARRNIITKGAILETSEGQARVTSRPGQHGQVNAVLVEAAALEHHHHHH
MAEQSDEAVKYYTLEEIQKHNHSKSTWLILHHKVYDLTKFLEEHPGGEEVLREQAGGDATENFEDVGHSTDAREMSKTFIIGELHPDDRPKLNKPPEP
